Experimental data reported in article PMC6715182, “Helicobacter pylori senses bleach (HOCl) as a chemoattractant using a cytosolic chemoreceptor” (PLoS Biology, 2019).

B1: Helicobacter pylori TlpD lacking the N-terminal His tag, TlpD(-His) (receptor)
chain: not shown
notes: TlpD, cytosolic chemoreceptor of H. pylori strain SS1, Uniprot A0A1U9IUC7; no limits stated; Tag cut by TEV protease; source: E. coli ArcticExpress DE3, purified (Ni-NTA, TEV protease, repurified, gel filtration)
B2: Helicobacter pylori chemotaxis protein W (CheW), recombinant (natural protein)
chain: MSNQLKDLFERQKEASAGSKQEDNEEVLQFIGFIIGDEEYAIPILNILEIVKPIGYTRVPETPNYVLGVFNLRGNVFPLISLRLKFGLKAEKQNKDTRYLVVRHNDQIAGFFIDRLTEAIRIKQTDIDPVPETLSDNNNLTYGIGKQNDRLVTILRVEEILKKDF
notes: CheW scaffold protein of H. pylori strain SS1, Uniprot A0A1U9ITT8; no limits stated; source: E. coli ArcticExpress DE3, purified (Ni-NTA, gel filtration)
B3: Helicobacter pylori transducer-like protein D (TlpD), recombinant, with intact N-terminal His tag (receptor)
chain: not shown
notes: TlpD, cytosolic chemoreceptor of H. pylori strain SS1, Uniprot A0A1U9IUC7; Monomer-dimer equilibrium; copies 2 is the dimer form; also called HpTlpD; TlpD(+His); source: E. coli ArcticExpress DE3, purified (Ni-NTA, gel filtration)

Tests used:
[1] = target: the molecule itself; experiment: AUC; interference; 1, 2 and 3 x 10 μM TlpD and 3 x 28 μM TlpD(-His) in PBS (pH 7), 1 mM TCEP, 20°C, 55,000 rpm; monomer and dimer peaks integrated (SedFit); dimer to monomers
[2] = target: T1, Helicobacter pylori chemotaxis protein A (CheA), histidine kinase, recombinant (H. pylori (G27 strain), UniProt B5Z859 1-807); experiment: cell-based or functional assay
T1 sequence: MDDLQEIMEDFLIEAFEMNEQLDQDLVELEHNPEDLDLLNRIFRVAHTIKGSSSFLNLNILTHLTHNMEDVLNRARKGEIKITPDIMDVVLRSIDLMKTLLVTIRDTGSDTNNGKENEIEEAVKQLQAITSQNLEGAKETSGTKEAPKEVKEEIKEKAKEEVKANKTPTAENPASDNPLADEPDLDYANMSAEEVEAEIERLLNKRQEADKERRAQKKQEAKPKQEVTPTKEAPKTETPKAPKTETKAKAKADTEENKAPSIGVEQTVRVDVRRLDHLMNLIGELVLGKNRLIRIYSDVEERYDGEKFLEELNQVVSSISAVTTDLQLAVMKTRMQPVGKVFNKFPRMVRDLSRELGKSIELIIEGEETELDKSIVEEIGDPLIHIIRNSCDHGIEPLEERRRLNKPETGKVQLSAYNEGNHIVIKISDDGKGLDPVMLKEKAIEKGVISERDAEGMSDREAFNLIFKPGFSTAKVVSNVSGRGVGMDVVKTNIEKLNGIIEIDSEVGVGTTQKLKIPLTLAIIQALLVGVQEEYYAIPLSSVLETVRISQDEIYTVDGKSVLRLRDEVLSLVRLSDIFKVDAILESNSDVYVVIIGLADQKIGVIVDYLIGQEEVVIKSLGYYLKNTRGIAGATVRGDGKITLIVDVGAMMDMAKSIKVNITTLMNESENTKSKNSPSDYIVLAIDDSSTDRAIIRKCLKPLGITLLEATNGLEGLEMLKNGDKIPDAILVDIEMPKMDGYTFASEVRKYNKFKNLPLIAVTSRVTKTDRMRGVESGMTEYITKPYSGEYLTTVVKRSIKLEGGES

[3] = target: T1, Helicobacter pylori chemotaxis protein …; experiment: kinase activity titration (radio-ATP labelling of CheA autophosphorylation); CheW titrated against 4 μM CheA, 1 mM ATP; kobs values fit to a binding isotherm; kinetically defined, estimated KD; 50 mM Tris (pH 7.5), 100 mM NaCl, 10 mM MgCl2, 20°C; conditions: both partners purified
[4] = target: T2, CheW-CheA complex (4 μM CheA with 40 μM CheW) (H. pylori (G27 strain) | H. pylori (SS1 …, UniProt B5Z859 1-807; O25152 1-165); experiment: cell-based or functional assay
T2 sequence 1: T1 sequence
T2 sequence 2: B2 chain

[5] = target: T2, CheW-CheA complex (4 μM CheA with 40 μM …); experiment: kinase activity titration (radio-ATP labelling of CheA autophosphorylation); TlpD titrated against 4 μM CheA and 40 μM CheW, 1 mM ATP; kobs values fit to a binding isotherm; CheA-CheW complex approximated as 2 μM; kinetically defined, estimated KD; 50 mM Tris (pH 7.5), 100 mM NaCl, 10 mM MgCl2, 20°C; conditions: both partners purified

Binder	Kd [1] [µM]	stoichiometry N [1]	CheA autophosphorylation (radio-ATP labelling), titration of CheW against 4 μM CheA, maximal activation over CheA alone [2] [fold]	Kd [3] [µM]	CheA autophosphorylation (radio-ATP labelling), titration of TlpD against 4 μM CheA and 40 μM CheW, maximal activation over CheA alone [4] [fold]	Kd [5] [µM]
B1	0.0648	2	–	–	–	–
B2	–	–	2.7	14.6	–	–
B3	0.189	2	–	–	14.6	15.2
